For this assay, the target named is Snf1 protein tagged with 3 copies of the HA epitope (wild type) (S. cerevisiae) (UniProt P06782). Put plainly: co-IP.
Chain of UniProt P06782 (P06782 whole entry): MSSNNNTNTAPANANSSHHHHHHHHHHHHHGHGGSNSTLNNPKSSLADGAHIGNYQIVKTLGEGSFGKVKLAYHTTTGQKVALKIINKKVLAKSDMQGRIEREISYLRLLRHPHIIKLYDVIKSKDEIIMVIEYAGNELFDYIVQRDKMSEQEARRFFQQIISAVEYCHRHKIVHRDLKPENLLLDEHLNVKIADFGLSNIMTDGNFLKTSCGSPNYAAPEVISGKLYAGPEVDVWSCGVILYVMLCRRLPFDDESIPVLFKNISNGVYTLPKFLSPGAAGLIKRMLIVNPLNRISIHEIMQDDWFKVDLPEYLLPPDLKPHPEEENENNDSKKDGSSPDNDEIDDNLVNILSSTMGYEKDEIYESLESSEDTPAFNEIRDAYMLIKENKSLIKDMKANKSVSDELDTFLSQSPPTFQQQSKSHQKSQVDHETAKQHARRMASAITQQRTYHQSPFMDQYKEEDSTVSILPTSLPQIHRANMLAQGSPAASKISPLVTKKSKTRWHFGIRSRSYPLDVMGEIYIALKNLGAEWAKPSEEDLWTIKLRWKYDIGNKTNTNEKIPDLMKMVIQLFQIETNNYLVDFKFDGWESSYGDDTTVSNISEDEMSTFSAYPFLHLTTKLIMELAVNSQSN

“Reg1-IF (I466M, F468A) (from UniProt Q00816 1-1014) (natural protein)” had a fold reduction of associated Reg1 against wild type Reg1 of 30 fold.

Source of the values: paper PMC2860547.
